Among the data in publication PMC5361195 are ratio to parent values, retold here.

B1: Flag-tagged wild-type A2 domain of coagulation factor VIII (pED-Flag-A2) [human] / calreticulin [not stated (endogenous in COS-1 or HEK293T cells)] (parent)
chain 1: KTWVHYIAAEEEDWDYAPLVLAPDDRSYKSQYLNNGPQRIGRKYKKVRFMAYTDETFKTREAIQHESGILGPLLYGEVGDTLLIIFKNQASRPYNIYPHGITDVRPLYSRRLPKGVKHLKDFPILPGEIFKYKWTVTVEDGPTKSDPRCLTRYYSSFVNMERDLASGLIGPLLICYKESVDQRGNQIMSDKRNVILFSVFDENRSWYLTENIQRFLPNPAGVQLEDPEFQASNIMHSINGYVFDSLQLSVCLHEVAYWYILSIGAQTDFLSVFFSGYTFKHKMVYEDTLTLFPFSGETVFMSMENPGLWILGCHNSDFRNRGMTALLKVSSC
chain 2: EPAVYFKEQFLDGDGWTSRWIESKHKSDFGKFVLSSGKFYGDEEKDKGLQTSQDARFYALSASFEPFSNKGQTLVVQFTVKHEQNIDCGGGYVKLFPNSLDQTDMHGDSEYNIMFGPDICGPGTKKVHVIFNYKGKNVLINKDIRCKDDEFTHLYTLIVRPDNTYEVKIDNSQVESGSLEDDWDFLPPKKIKDPDASKPEDWDERAKIDDPTDSKPEDWDKPEHIPDPDAKKPEDWDEEMDGEWEPPVIQNPEYKGEWKPRQIDNPDYKGTWIHPEIDNPEYSPDPSIYAYDNFGVLGLDLWQVKSGTIFDNFLITNDEAYAEEFGNETWGVTKAAEKQMKDKQDEEQRLKEEEEDKKRKEEEEAEDKEDDEDKDEDEEDEEDKEEDEEEDVPGQAKDEL

The variants in the assay derive from B1. Description: co-immunoprecipitation (anti-Flag IP, immunoblot densitometry). To be noted: with calreticulin [not stated (endogenous in COS-1 or HEK293T cells)]; 36 h after transfection; n = 3; parent: 1; read off a plot. A general note: In western blotting, separated proteins are transferred to a membrane and probed.
For the variant chain 1 D201V, the ratio to parent came to 1.1.
As to chain 1 D201H, the ratio to parent came to 2.2.
For chain 1 N203D, the ratio to parent stood at 0.92.
Take chain 1 S205T: the ratio to parent was found to be 2.3.
